Reference: publication PMC7364481, “Identification and validation of the phosphorylation sites on Aristaless-related homeobox protein”

What was measured:
Assay in all cases: EMSA; 5 ug protein per lane; LightShift chemiluminescent EMSA kit, 6% polyacrylamide gel, 5 ug protein per lane; binding buffer, salt, pH and temperature not stated (protein eluted in 50 mM Tris-Cl pH 8.0, 30 mM glutathione)
Conditions in all cases: protein: recombinant; tags: N-terminal GST (pGEX-4T-2); label: biotin; blunt
[1] = target: GST-ARX(220-392) S266E (UniProt O35085 220-392, S266E)
[2] = target: GST-ARX(220-392) WT (UniProt O35085 220-392)
[3] = target: GST-ARX(220-392) S266A (UniProt O35085 220-392, S266A)

Measured: binding result

GST-ARX(220-392) S266A, sequence (O35085 220-392 S266A): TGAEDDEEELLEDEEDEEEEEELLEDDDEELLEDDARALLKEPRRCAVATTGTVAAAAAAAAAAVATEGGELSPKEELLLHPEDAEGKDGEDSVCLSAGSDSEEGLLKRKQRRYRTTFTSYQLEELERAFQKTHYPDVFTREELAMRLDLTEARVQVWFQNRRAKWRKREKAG
GST-ARX(220-392) WT, sequence (O35085 220-392): as the sequence (O35085 220-392 S266A) above, with A47S counted along it
GST-ARX(220-392) S266E, sequence (O35085 220-392 S266E): as the sequence (O35085 220-392 S266A) above, with A47E counted along it

B1: SIX1 probe (dsDNA)
DNA 1: TCTTAACATTAAGGTAATTAAATATGAGCTCAC
DNA 2: GTGAGCTCATATTTAATTACCTTAATGTTAAGA
binds: all assays above
